US20250002588A1 (DIAGONAL THERAPEUTICS, published 2025)

Molecular target: ALK-1/BMPR-2 receptor pair of the PathHunter U2Os dimerization cells (DiscoverX 93-0962C3) (UniProt P37023 22-503; Q13873 27-1038)
Experiment: cell-based or functional assay

Row | % Emax BMP9 [%] | Emax (RLU) | Binder
1 | 56 | 1.44e+06 | DGL869 (bispecific antibody) chain 1: not shown chain 2: EVQLLESGGGLVQPGGSLRLSCAASGFTFSDYYMTWIRQAPGKGLEWVSSISGGSTYYADSRKGRFTISRDNSENTLYLQMNSLRAEDTAVYYCARDFGVAGWFGQYGMDVWGQGTLVTVSSGGGGSGGGGSGGGGSQSVLTQPPSASGTPGQRVTISCTGSSSNIGAGYDVHWYQQLPGTAPKLLIYRSNQRPSGVPDRFSGSKSGTSASLAISGLRSEDEADYYCSSYAGNYNLVFGGGTKLTVLDKTHTCPPCPAPEAAGAPSVFLFPPKPKDTLMISRTPEVTCVVVDVSHEDPEVKFNWYVDGVEVHNAKTKPREEQYNSTYRVVSVLTVLHQDWLNGKEYKCKVSNKALPAPIEKTISKAKGQPREPQVCTLPPSRDELTKNQVSLSCAVKGFYPSDIAVEWESNGQPENNYKTTPPVLDSDGSFFLVSKLTVDKSRWQQGNVFSCSVMHEALHNHYTQKSLSLSPGWSHPQFEK
2 | 60 | 1.55e+06 | DGL873 (bispecific antibody) chain 1: not shown chain 2: EVQLLESGGGLVQPGGSLRLSCAASGFTFSDYYMTWIRQAPGKGLEWVSSISGGSTYYADSRKGRFTISRDNSENTLYLQMNSLRAEDTAVYYCARDFGVAGWFGQYGMDVWGQGTLVTVSSGGGGSGGGGSGGGGSQSVLTQPPSASGTPGQRVTISCTGSSSNIGAGYDVHWYQQLPGTAPKLLIYRSNQRPSGVPDRFSGSKSGTSASLAISGLRSEDEADYYCSSYAGNYNLVFGGGTKLTVLDKTHTCPPCPAPEAAGAPSVFLFPPKPKDTLMISRTPEVTCVVVDVSHEDPEVKFNWYVDGVEVHNAKTKPREEQYNSTYRVVSVLTVLHQDWLNGKEYKCKVSNKALPAPIEKTISKAKGQPREPQVCTLPPSRDELTKNQVSLSCAVKGFYPSDIAVEWESNGQPENNYKTTPPVLDSDGSFFLVSKLTVDKSRWQQGNVFSCSVMHEALHNHYTQKSLSLSPGWSHPQFEK
3 | 62 | 1.59e+06 | DGL871 (bispecific antibody) chain 1: not shown chain 2: EVQLLESGGGLVQPGGSLRLSCAASGFTFSDYYMTWIRQAPGKGLEWVSSISGGSTYYADSRKGRFTISRDNSENTLYLQMNSLRAEDTAVYYCARDFGVAGWFGQYGMDVWGQGTLVTVSSGGGGSGGGGSGGGGSQSVLTQPPSASGTPGQRVTISCTGSSSNIGAGYDVHWYQQLPGTAPKLLIYRSNQRPSGVPDRFSGSKSGTSASLAISGLRSEDEADYYCSSYAGNYNLVFGGGTKLTVLDKTHTCPPCPAPEAAGAPSVFLFPPKPKDTLMISRTPEVTCVVVDVSHEDPEVKFNWYVDGVEVHNAKTKPREEQYNSTYRVVSVLTVLHQDWLNGKEYKCKVSNKALPAPIEKTISKAKGQPREPQVCTLPPSRDELTKNQVSLSCAVKGFYPSDIAVEWESNGQPENNYKTTPPVLDSDGSFFLVSKLTVDKSRWQQGNVFSCSVMHEALHNHYTQKSLSLSPGWSHPQFEK
4 | 57 | 1.46e+06 | DGL872 (bispecific antibody) chain 1: not shown chain 2: EVQLLESGGGLVQPGGSLRLSCAASGFTFSDYYMTWIRQAPGKGLEWVSSISGGSTYYADSRKGRFTISRDNSENTLYLQMNSLRAEDTAVYYCARDFGVAGWFGQYGMDVWGQGTLVTVSSGGGGSGGGGSGGGGSQSVLTQPPSASGTPGQRVTISCTGSSSNIGAGYDVHWYQQLPGTAPKLLIYRSNQRPSGVPDRFSGSKSGTSASLAISGLRSEDEADYYCSSYAGNYNLVFGGGTKLTVLDKTHTCPPCPAPEAAGAPSVFLFPPKPKDTLMISRTPEVTCVVVDVSHEDPEVKFNWYVDGVEVHNAKTKPREEQYNSTYRVVSVLTVLHQDWLNGKEYKCKVSNKALPAPIEKTISKAKGQPREPQVCTLPPSRDELTKNQVSLSCAVKGFYPSDIAVEWESNGQPENNYKTTPPVLDSDGSFFLVSKLTVDKSRWQQGNVFSCSVMHEALHNHYTQKSLSLSPGWSHPQFEK
5 | 56 | 1.42e+06 | DGL870 (bispecific antibody) chain 1: not shown chain 2: EVQLLESGGGLVQPGGSLRLSCAASGFTFSDYYMTWIRQAPGKGLEWVSSISGGSTYYADSRKGRFTISRDNSENTLYLQMNSLRAEDTAVYYCARDFGVAGWFGQYGMDVWGQGTLVTVSSGGGGSGGGGSGGGGSQSVLTQPPSASGTPGQRVTISCTGSSSNIGAGYDVHWYQQLPGTAPKLLIYRSNQRPSGVPDRFSGSKSGTSASLAISGLRSEDEADYYCSSYAGNYNLVFGGGTKLTVLDKTHTCPPCPAPEAAGAPSVFLFPPKPKDTLMISRTPEVTCVVVDVSHEDPEVKFNWYVDGVEVHNAKTKPREEQYNSTYRVVSVLTVLHQDWLNGKEYKCKVSNKALPAPIEKTISKAKGQPREPQVCTLPPSRDELTKNQVSLSCAVKGFYPSDIAVEWESNGQPENNYKTTPPVLDSDGSFFLVSKLTVDKSRWQQGNVFSCSVMHEALHNHYTQKSLSLSPGWSHPQFEK
6 | 61 | 1.57e+06 | DGL876 (bispecific antibody) chain 1: not shown chain 2: EVQLLESGGGLVQPGGSLRLSCAASGFTFSDYYMTWIRQAPGKGLEWVSSISGGSTYYADSRKGRFTISRDNSENTLYLQMNSLRAEDTAVYYCARDFGVAGWFGQYGMDVWGQGTLVTVSSGGGGSGGGGSGGGGSQSVLTQPPSASGTPGQRVTISCTGSSSNIGAGYDVHWYQQLPGTAPKLLIYRSNQRPSGVPDRFSGSKSGTSASLAISGLRSEDEADYYCSSYAGNYNLVFGGGTKLTVLDKTHTCPPCPAPEAAGAPSVFLFPPKPKDTLMISRTPEVTCVVVDVSHEDPEVKFNWYVDGVEVHNAKTKPREEQYNSTYRVVSVLTVLHQDWLNGKEYKCKVSNKALPAPIEKTISKAKGQPREPQVCTLPPSRDELTKNQVSLSCAVKGFYPSDIAVEWESNGQPENNYKTTPPVLDSDGSFFLVSKLTVDKSRWQQGNVFSCSVMHEALHNHYTQKSLSLSPGWSHPQFEK
7 | 61 | 1.56e+06 | DGL874 (bispecific antibody) chain 1: not shown chain 2: EVQLLESGGGLVQPGGSLRLSCAASGFTFSDYYMTWIRQAPGKGLEWVSSISGGSTYYADSRKGRFTISRDNSENTLYLQMNSLRAEDTAVYYCARDFGVAGWFGQYGMDVWGQGTLVTVSSGGGGSGGGGSGGGGSQSVLTQPPSASGTPGQRVTISCTGSSSNIGAGYDVHWYQQLPGTAPKLLIYRSNQRPSGVPDRFSGSKSGTSASLAISGLRSEDEADYYCSSYAGNYNLVFGGGTKLTVLDKTHTCPPCPAPEAAGAPSVFLFPPKPKDTLMISRTPEVTCVVVDVSHEDPEVKFNWYVDGVEVHNAKTKPREEQYNSTYRVVSVLTVLHQDWLNGKEYKCKVSNKALPAPIEKTISKAKGQPREPQVCTLPPSRDELTKNQVSLSCAVKGFYPSDIAVEWESNGQPENNYKTTPPVLDSDGSFFLVSKLTVDKSRWQQGNVFSCSVMHEALHNHYTQKSLSLSPGWSHPQFEK
8 | 65 | 1.66e+06 | DGL875 (bispecific antibody) chain 1: not shown chain 2: EVQLLESGGGLVQPGGSLRLSCAASGFTFSDYYMTWIRQAPGKGLEWVSSISGGSTYYADSRKGRFTISRDNSENTLYLQMNSLRAEDTAVYYCARDFGVAGWFGQYGMDVWGQGTLVTVSSGGGGSGGGGSGGGGSQSVLTQPPSASGTPGQRVTISCTGSSSNIGAGYDVHWYQQLPGTAPKLLIYRSNQRPSGVPDRFSGSKSGTSASLAISGLRSEDEADYYCSSYAGNYNLVFGGGTKLTVLDKTHTCPPCPAPEAAGAPSVFLFPPKPKDTLMISRTPEVTCVVVDVSHEDPEVKFNWYVDGVEVHNAKTKPREEQYNSTYRVVSVLTVLHQDWLNGKEYKCKVSNKALPAPIEKTISKAKGQPREPQVCTLPPSRDELTKNQVSLSCAVKGFYPSDIAVEWESNGQPENNYKTTPPVLDSDGSFFLVSKLTVDKSRWQQGNVFSCSVMHEALHNHYTQKSLSLSPGWSHPQFEK
